# Test: yeast display, Sf9 membrane polyspecificity reagent, FACS + sequencing; frameworks hold sequencing errors
# In short: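 Galactose induction of a Saccharomyces cerevisiae BJ5465 synthetic nanobody display library ran 36–48 hours. The cells were then stained for 1 hour at 4 °C with 10% biotinylated, detergent-solubilized Sf9 membrane reagent, pulled down on streptavidin microbeads and FACS-sorted into low and high (top ~1%) gates on expression and reagent-binding fluorescence. Labels for polyreactivity follow the gate of origin.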
row,Sequence,polyreactivity (PSR sort gate)
1,QVHLVESGGGLVQAGGSLRLSCAASGLIFYRYAMGWYRQAPGKERELVATISRGGRTYYADSVKGRFTNSRDNAKNTVYLQMNSLKPEDTAVYYCNADRQWYSIGSWEYDYWGQGTQVTVSS,high polyreactivity
2,QVHLVESGGGLVQAGGSLRLSCAASGLIIRYYAMGWYRQAPWKERELVAAITSRGGSTYYADSVKGRFKISRDNAKNTVYLQMNSLKPEDTAVYSCAAGLIFVSRFYVPYDYWGQGTQVTVSS,high polyreactivity
3,QVHLVESGGGLVQAGGSLRLSCAASGLILGHYTMGWYRQAPGKERELVAAITSDGGSTYYADSVMGRFTISRDNAKNTVYLQMNSLKPEDTAVFYCAADLPAYTGYESDYWGQGTQVTGSS,low polyreactivity
4,QVHLVESGGGLVQAGGSLRLSCAASGLPFSQNAMGWNRQAPGKERELVAAINTSDDSTYYADSVKGRFTISRDNAKNTVYLQMNSLKPEDTAVYDCAVDGYWYGGIFYYWGQGTQVTVSS,low polyreactivity
5,QVHLVESGGGLVQAGGSLRLSCAASGLTLNSYVMGWYRQAPGKERELVARITSGGRTNYADSVKGRFTISRDNAKNTVYLQMNSVKPEDTAVYYCAVRSLSYARGGRSDFKVGYWGQGTQVTVSS,low polyreactivity
6,QVHLVESGGGLVQAGGSLRLSCAASGNIIDSNAMGWYRHAPGKERELVAAITWSGGSTYYADSVKGRFTISRDNAKTTVYLPMNSLKPADTAVYYCAAYAQKRYYWGQGTQVTVSS,high polyreactivity
7,QVHLVESGGGLVQAGGSLRLSCAASGNIITSYAMGWYRQAPGKERELVAAISSGGTTHYADSVKGRFTISRDNAKNTVYLQMNSLKPEDTAVYYCAARQVSYYKANDSWVRSEYDYWGQGTQVSVSS,low polyreactivity
8,QVHLVESGGGLVQAGGSLRLSCAASGRIFADYAMGWYRHAPGKERELVAAISSTSSTNYADSVKGRFTISRDNAKNTVYLQMKSLKPEDTAVYYCAATAGSLTADYVSYTYNYWGQGTQVTVSS,low polyreactivity
9,QVHLVESGGGLVQAGGSLRLSCAASGRIFAKNAMGWYRQAPGKERELVAAINHSGGSTYYADSVKGRFTISRDYAKNTVYLQMNSLNPEDTAVYYCDARGLTTRSPFYYWGQGTQVTVSS,high polyreactivity
10,QVHLVESGGGLVQAGGSLRLSCAASGRIFDGYDMGWYRQAPGKERELVAAITSVGSTNYADSVKGRFTISRDNAKNTVYLQMNSLKPEDTAVYYCAAVLYVFDDEYGYLEYFSQYDYWGQGSQVTVSS,low polyreactivity
11,QVHLVESGGGLVQAGGSLRLSCAASGRIFFPNAMGWYRQAPGKERELVAGISIGGSTKYADSVKGRFTISRDNAKNTVYLQMNSLKPEDTAVYYCAAGRGRHTYNYWGQGTQVTVSS,low polyreactivity
12,QVHLVESGGGLVQAGGSLRLSCAASGRIFFTNAMGWYRQAPGKERELVATISSSDGSTYYADSVKGRFTISRDNAKYTVYLQMNSLKPEDTAVYYCAALYSFRGSRQYTYKYYYWGLGTQVTVSS,high polyreactivity
13,QVHLVESGGGLVQAGGSLRLSCAASGRIFGRYAMGWYRQAPGKERELVARITTSGGSTSYADSVKGRFTISRDNAKNTVYLQMNSLKPEDTAVYYCAADRARYYSEYDYWGQGTQVTVSS,low polyreactivity
14,QVHLVESGGGLVQAGGSLRLSCAASGRIFHYYMVWYTQAPGKERELVAVISSGDGTYYADSVKRRFTISRDNAKNTVYLQMNSLKPEDTAVYYCAADAPREYVDHYKYDDDYWGQGTQETVSS,low polyreactivity
15,QVHLVESGGGLVQAGGSLRLSCAASGRIFIYNAMGWYRPPPGKERELVAAINRSGVSTHYADSVKGRFTISRDNAKNTVFLQMNSLKPEDTAVYYCARTVYGARSYDYWGQGTQVTVSS,low polyreactivity
16,QVHLVESGGGLVQAGGSLRLSCAASGRIFRTYAMGWYRQAPGTERELVASITTSSDSPYYADSVKGRFTISRDNAKNTVYLQMNSLKPEDTAVYYCAADGDHPWWSQYDYWGQGTQVTVSS,low polyreactivity
17,QVHLVESGGGLVQAGGSLRLSCAASGRIFVGYAMGWSRQAPGKERELVAASTSGGITNYADSVKGRFTISRDNAKNTVYIQMTSLKPEATAVYYCNVKRRVSGYYGYKDYYWGQGTQVTVSS,high polyreactivity
18,QVHLVESGGGLVQAGGSLRLSCAASGRIFYTNAMGWYRQAPGKERELVAVISWGGDTTYYADSVKGRFTISRDNAKNTVSLQMNSLKPEDTEVYYCAARSKYTHSRQSDYWGQGTQVTVSS,low polyreactivity
19,QVHLVESGGGLVQAGGSLRLSCAASGRNFLYYAMGWYRQAPGKERELVAASTSGDSTYYADSVKGRFTISRDNAKNTVYLQRNSLKPEDTAVYYCNAYQWGGRYWLVTYDYWGQGTLVTVSS,low polyreactivity
20,QVHLVESGGGLVQAGGSLRLSCAASGRTFGPYTMGWYRQAPGTEREVVAAINSSGSRTYYADSVKGRFTISRDNAKNTVYLQMNSLKPEDTAVYYCADEAKWYYSWSYPYEGDYWGQGTQVTVSS,low polyreactivity

row,Sequence,polyreactivity (PSR sort gate)
1,QVHLVESGGGLVQAGGSLRLSCAASGRTFGYYAMGWYRQAPAKERELVAAITSDGRTNYADSVKGRFTISRDNAKNTVYLQMNSLKPEDTAVYYCAAQILGTFYEYDYWGQGTQVTVSS,low polyreactivity
2,QVHLVESGGGLVQAGGSLRLSCAASGRTFIIYAMGWYRPAPGKERELVADISSGGSTYYADSVKGRFTISRDNAKNTVYLQMNIVKPEDTAVYYCAAQSWYFPIGYDYWGQGTQVTVSS,low polyreactivity
3,QVHLVESGGGLVQAGGSLRLSCAASGRTFILNAMGWYRQAPGKERELVAAISWSGGSTYYADSVKGRFTISRDNAKNTVYLQMNSLKPEDTAVYYCAKDSPGDGIGYGYWGQGTQVTVSS,low polyreactivity
4,QVHLVESGGGLVQAGGSLRLSCAASGRTFKHYAMGWYRQEPGKERELVAAITSGGSTYYADSVKGLFTISRDNAKNPVYLQMNSLKPEDTAVYYCNTESFFDTYRRYDSWGQGTQVTVSS,low polyreactivity
5,QVHLVESGGGLVQAGGSLRLSCAASGRTFPGYAMGWYRQAPGKERELVATITFSDGSTYYADSVKGRFTISLDNAKNTVYLQMNSLKPEDTAVYYCNARRSYFLRYGVNYWGQGTQVTVSS,low polyreactivity
6,QVHLVESGGGLVQAGGSLRLSCAASGRTFPYNAMGWYRQAPGKERELVAAISWRGGSTYYADSVKGRFTISRDNAKNTVYLQMNSLKPEDTAVYYCNALYPVSYDHRGDYWGQGTQVTVSS,high polyreactivity
7,QVHLVESGGGLVQAGGSLRLSCAASGRTFQWYAMGWYRQAPGKERELVAAIRYSAGSTYYADSVKGRFTISRDNAKNTVYLQMNSLKPEDTAVYYCAAEPYPYGPYYFLWLRYDYWGQGTHVTVSS,low polyreactivity
8,QVHLVESGGGLVQAGGSLRLSCAASGRTFRRYAMGWYRQAPGKERELVAGISRSGVSTYYADSVKGRFTISRDNAKNTVYLQMNSLKPEDTAVYYCATRYVPTLRSSGDYCGQGTQVTVSS,high polyreactivity
9,QVHLVESGGGLVQAGGSLRLSCAASGRTFRVNAMGWNRKAPGKERELLAAISSRGGTTYYADSVKGRCTISSDYAKNTLYLQMYSLKAEDTAVYYCAAASDRDFPFDYWGQGTQVSVSS,high polyreactivity
10,QVHLVESGGGLVQAGGSLRLSCAASGRTFRYNAMGWYRQAPGKERELVATISSSGGSTSYADSVKGRFTISRDNAKNTVYLQMNSLKPEDTAVYYCNKRRLVAPGNGMDSWGQGTQVTVSS,low polyreactivity
11,QVHLVESGGGLVQAGGSLRLSCAASGRTFSKYAMGWYRPAPGKERELVAAITSRGSSTYYADSVKGRFTISRDYAKNTVYLLMNSLKPEDTAVYYCNAGGYYIRTGWYRSGSDYWGQGTQVTVSS,high polyreactivity
12,QVHLVESGGGLVQAGGSLRLSCAASGRTFVINAMGWYRQAPGKERELVAAITWGGGSTYYADSVKGRFTISRDNAKNTVYLQMNSLKPEDTAVYYCATSYSVQYGGSGYYWGQGTQVTVSS,low polyreactivity
13,QVHLVESGGGLVQAGGSLRLSCAASGRTFVYNAMGWYRQAPGKERELVAAISQSGGSTYYADSVKGRFTISRDNAKNTVYLQMNSLKPEDTAVYYCAARYKTGSYVRYNYWGQGSQVTVSS,high polyreactivity
14,QVHLVESGGGLVQAGGSLRLSCAASGRTFYDYTMGLDRQAPGKERELVAAISQRGGSTYYADSVKGRFTISRDNAKNTVYLQMNSLKPEDTAVYYCAARTSYSGNKYYYWGQGTQVTVSS,high polyreactivity
15,QVHLVESGGGLVQAGGSLRLSCAASGRTFYYYAMGWYRQAPGKERELVAAISGSGTNTYYADSVKGRFTISRDNAKNTVYLQMNRLKPEDTAVYYCAAEYFGFYTDGGVFDLYYWGQGTQVTVSS,low polyreactivity
16,QVHLVESGGGLVQAGGSLRLSCAASGSIFAAYTMGWYRRAPGKERELVAAISVSTVSTYYADSVKGRFTISRDNAKNTVYLQMNSLNPEDTAVYYCNADATDSYPEKDEHDSWGQGTQVTVSS,low polyreactivity
17,QVHLVESGGGLVQAGGSLRLSCAASGSIFALYAMGWYRQAPGKERELVARISYSGGRTYYADSVKGRFTISRDNAKNTVYLQMNSLKPEDTAVYYCATRSFKWSFVGYDYWGQGTQVTVSS,high polyreactivity
18,QVHLVESGGGLVQAGGSLRLSCAASGSIFAYYAMGWYRQAPGKEWEVVAAINWRVGRTYYADSVNGRFTISRDNAKNTVYLQMNSLKPEDTAVYYCAAVYRNQYRGSRFDYWGQGTQVTVSS,high polyreactivity
19,QVHLVESGGGLVQAGGSLRLSCAASGSIFDVNAMGWYRQAPGKERQLVAAISDSGGSTYYADSVKGRFTISRDNAKNTVYLQMNSLKPEDTAVYYCNADWSSYNYYDFDYWGQGTQVTVSS,low polyreactivity
20,QVHLVESGGGLVQAGGSLRLSCAASGSIFGSNAMGWYRQAPGKERELVAAISRRGGNTYYADSVKGRFTISRDNAKNTVYLQLNSLKPEDTAVYYCAAPKDPDRVQYDYWGQGTQVTVSS,low polyreactivity

# — the nanobody polyreactivity screen of Harvey et al. (2022)
